The supplement of paper PMC10126150
± gives the standard deviation of the averaged measurements.

What follows are sequences tested on ATP (assay: switch fluorescence ratio, 500 uM ATP over buffer (Cy3 cluster intensity, sum of 5 cycles each) (fold (ratio)); higher = stronger signal-on switching upon ATP binding; sequences stand for … in TCGTCGGCAGCGTCAGATGTGTATAAGAGACAGTTTTTTTTTTTTTTTTTTTTTTTTT…TC). Conditions: aptamer strand: ATP DNA aptamer (quencher-CACCTGGGGGAGTATTGCGGAGGAAGG + anchor), 100 nM annealed; ATP concentration: 500 uM.
Method in brief: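 Per cluster, summed Cy3 intensity from the target cycles was divided by that from the buffer cycles to give the fluorescence ratio, then averaged per switch-domain sequence. Clusters outside 100-1000 RFU were excluded. The Cy3-labelled switching-strand clusters, on a modified Illumina MiSeq flow-cell, were annealed to 100 nM quencher-labelled ATP aptamer and imaged in selection buffer, then after 15 min with 500 uM ATP at 22 °C, for five cycles with NaOH stripping and re-annealing between them.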
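Also: ATP exposure 15 min at 22 °C before imaging.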

In order of falling switch fluorescence ratio:
1. ACCGAGCAAG  4.12 ± 0.19
2. AACCGCTATA  3.11 ± 1
3. ACCTGCAATG  2.43 ± 0.2
4. TTTGCCTCCG  2.15 ± 1.7
5. TAGCTAGGTG  1.62 ± 0.05
6. AACTTTACTC  1.55 ± 0.095
7. GGGTCTGTAA  1.42 ± 0.61
8. GCGAGGCCAA  1.28 ± 0.054
9. TTTTGCACGC  1.28 ± 0.2
10. CAGTGATTC  1.26 ± 0.35
11. AGTCAAAAAA  1.17 ± 0.3
12. ATAATACGCC  1.17 ± 0.013
13. TTAGTGGTAC  1.15 ± 0.044
14. TAGACGCTCA  1.105 ± 0.0057
15. CGTCACCGGG  1.11 ± 0.032
16. TTTTTTGGAA  1.1 ± 0.16
17. GAAAGTTAGG  1.1 ± 0.14
18. TCGAAGTGAA  1.09 ± 0.018
19. GTTCGCAAAT  1.09 ± 0.063
20. GCCCCACCTT  1.08 ± 0.021
21. TCTAGGCGTC  1.07 ± 0.031
22. CCTAGAGGGT  1.07 ± 0.024
23. GACATTCCCT  1.07 ± 0.016
24. GCGCACCACG  1.06 ± 0.029
25. TTATACCTTA  1.065 ± 0.0043
26. TAAGTACCGG  1.06 ± 0.038
27. TGTGCCAGGG  1.06 ± 0.024
28. AGTTACAGGG  1.05 ± 0.019
29. GGAGCGCTGG  1.05 ± 0.02
30. TAGCGGGTTC  1.055 ± 0.0048
31. TATGACAGGG  1.05 ± 0.024
32. CACGGGATGG  1.05 ± 0.026
33. CGAAAAGGTG  1.05 ± 0.054
34. GGAAAAAGGT  1.05 ± 0.14
35. GGAAAGGTCG  1.04 ± 0.039
36. GGGAATGGTG  1.035 ± 0.0095
37. AGGGTTACGC  1.04 ± 0.11
38. TAATCACCTA  1.038 ± 0.0093
39. AATGTGAGCT  1.04 ± 0.043
40. AAGTGCGGGC  1.04 ± 0.027
41. TAAGCTTCAT  1.04 ± 0.18
42. CTTGATGCGA  1.032 ± 0.0045
43. GAAGGTTAAC  1.03 ± 0.1
44. TTGGTGGATC  1.03 ± 0.03
45. TGATAACTCC  1.03 ± 0.036
46. TTTACTCGGA  1.033 ± 0.0099
47. GCACGGGGCG  1.03 ± 0.034
48. TCGGGGATCT  1.033 ± 0.0073
49. TTAAAAAATG  1.03 ± 0.042
50. GGGGGTGGG  1.03 ± 0.069
51. TCATGGGGAG  1.03 ± 0.033
52. TCTCAGTAGG  1.02 ± 0.013
53. AAAGGGGTTT  1.02 ± 0.022
54. TTTAAGAGCG  1.02 ± 0.013
55. ATTCATTAGG  1.02 ± 0.034
56. TAGCGGGGGC  1.02 ± 0.05
57. GTTTCATATC  1.02 ± 0.047
58. CCAAACGATT  1.02 ± 0.027
59. CCTTATAATT  1.02 ± 0.035
60. GCAGGGGGCA  1.024 ± 0.01
61. TGTTCGGCGG  1.02 ± 0.036
62. ATGCTAATTA  1.02 ± 0.024
63. GGGTGCTTTG  1.02 ± 0.029
64. GTTTTGGCTG  1.02 ± 0.036
65. TTTTAGTAAC  1.02 ± 0.017
66. GTTTACTCGT  1.02 ± 0.012
67. TATTTATCTG  1.02 ± 0.019
68. AAATAGGCAT  1.0235 ± 0.00029
69. ACGGGTATTG  1.02 ± 0.034
70. GGGATAGTGC  1.01 ± 0.021
71. TGTTCATATA  1.01 ± 0.021
72. TCAATGAGGG  1.01 ± 0.03
73. GGACTTCGCG  1.01 ± 0.085
74. ACATTTGGGT  1.0104 ± 0.00044
75. GGAACGGGGT  1.01 ± 0.048
76. AGGTACGAGG  1.006 ± 0.003
77. GCTTAGGGTG  1.01 ± 0.015
78. GATCTGGCGG  1.01 ± 0.034
79. AGTTGTCTCG  1.01 ± 0.058
80. AAATCTCTGA  1.01 ± 0.025
81. GTAATGCTTG  1.012 ± 0.01
82. TTAAAGTCAT  1.007 ± 0.0072
83. CCAGTTTTTC  1.01 ± 0.019
84. CGCCTTGTTC  1.01 ± 0.012
85. TGGGGGGAGT  1.01 ± 0.024
86. TGCACTTTTA  1.01 ± 0.02
87. AGTGGAAATT  1.01 ± 0.049
88. GGTTAAGCTT  1.007 ± 0.0078
89. AGAGGGAACA  1.01 ± 0.02
90. CGTGATATTG  1.01 ± 0.017
91. GCTGGTAGGG  1.01 ± 0.026
92. GTTTTTAGTT  1.012 ± 0.0084
93. TTTGGAAA  1.01 ± 0.033
94. GGTGGGGAGT  1.01 ± 0.021
95. GCAACATTTT  1.01 ± 0.043
96. GAGTTTGTTA  1.01 ± 0.07
97. TTGGCGTTCG  1.01 ± 0.025
98. TTGGTCTAGA  1.01 ± 0.054
99. CGGCGTCCGT  1.01 ± 0.037
100. TTAGACATTT  1.01 ± 0.026
101. TTGAGGGATC  1.01 ± 0.06
102. TTGAATGAAT  1.015 ± 0.0031
103. GAACGGCTCT  1.012 ± 0.0011
104. ATGGTTTTAT  1.01 ± 0.045
105. TGTGGGTGGT  1.01 ± 0.018
106. CACGCGGGGA  1.01 ± 0.041
107. ATCATAATCT  1.013 ± 0.0034
108. TGATGGGCAG  1.01 ± 0.047
109. TTATGCGATT  1 ± 0.022
110. TGCATTGGGG  1 ± 0.024
111. TTGATTTTAA  1 ± 0.014
112. AAAATGGGGG  1 ± 0.03
113. GATTCAGGGT  1 ± 0.024
114. GATAGCTGGG  1 ± 0.014
115. GCGCCCAGTT  1.003 ± 0.0029
116. GAATGTTATT  1.001 ± 0.0065
117. ACGTTAAGTG  1 ± 0.011
118. GTCCATTGGG  1 ± 0.021
119. GTTAGGTTTT  1 ± 0.017
120. CTTAGAATCG  1 ± 0.025
121. AATGGGAAGA  0.9987 ± 0.0043
122. ACATTTATGG  0.999 ± 0.021
123. GATTTTGGTT  0.998 ± 0.014
124. ATGTTCAACT  0.998 ± 0.016
125. CTATGACGTT  0.998 ± 0.019
126. TGCGGTTTTT  0.998 ± 0.02
127. TTTATTTCCA  0.996 ± 0.03
128. ATTATAGGTT  0.996 ± 0.0091
129. TAGAAGACAG  0.996 ± 0.025
130. ATGTGTAGAG  0.995 ± 0.027
131. GATACGCGGG  0.9947 ± 0.0057
132. AGAATCCTG  0.995 ± 0.043
133. AGTGGGGGTA  0.995 ± 0.028
134. TATATGCGCG  0.994 ± 0.041
135. AGTTAGGTAG  0.9939 ± 0.0081
136. TTGTTGTGAC  0.994 ± 0.028
137. GCAGGAAGTC  0.994 ± 0.0039
138. ATGGGGGCGT  0.994 ± 0.043
139. GGGGGTTTTG  0.993 ± 0.038
140. CTTTTAGTTG  0.993 ± 0.017
141. TTAAGATTTT  0.9935 ± 0.0053
142. CCTAATAGGG  0.9929 ± 0.0033
143. ATTTTGTCGC  0.992 ± 0.016
144. GGGCCCGAAT  0.992 ± 0.047
145. TTTTCGGGCA  0.99223 ± 4.3e-05
146. ACTTGGTTGT  0.992 ± 0.013
147. TAAGGAAAGT  0.991 ± 0.027
148. TACCGGGTTT  0.9914 ± 0.0059
149. GAATGTTTGG  0.991 ± 0.011
150. AGGAGGGGG  0.989 ± 0.049
151. AGCTAGGGGG  0.989 ± 0.022
152. AGGTAGAATA  0.989 ± 0.031
153. GTAGAGCGGG  0.9889 ± 0.0042
154. CGTGTATTTG  0.989 ± 0.011
155. ACAAGGGAAG  0.988 ± 0.015
156. GGAGACTCAA  0.988 ± 0.016
157. AGGGCTTGCT  0.987 ± 0.038
158. GGGGTTGGAA  0.9873 ± 0.0056
159. TATTTAGGGA  0.987 ± 0.022
160. TTTCATGTTA  0.987 ± 0.0084
161. ATAGTGGGGT  0.987 ± 0.021
162. GGTCTAGGCA  0.987 ± 0.02
163. TTTTTGATAG  0.9847 ± 0.0057
164. TTGACGTCGG  0.985 ± 0.018
165. GAGCTATGGG  0.983 ± 0.043
166. GTGGAATGGG  0.983 ± 0.055
167. TCAAGGGAAC  0.9826 ± 0.004
168. TATTTCGGTG  0.982 ± 0.027
169. TTTCAGGTTG  0.982 ± 0.041
170. TTGAGATAAG  0.9819 ± 0.0014
171. ACTGTGTACA  0.9824 ± 0.0024
172. TTTAAGAGGT  0.982 ± 0.023
173. ATATATGTGG  0.981 ± 0.057
174. ATACCATCGG  0.981 ± 0.024
175. TCTTGATGGG  0.9811 ± 0.008
176. GTGGGGGTCG  0.98 ± 0.075
177. ATGCGAAGG  0.98 ± 0.038
178. ATAGGGAGTA  0.979 ± 0.061
179. GAAAAAGGGA  0.979 ± 0.026
180. GATGATGGGA  0.97941 ± 0.00096
181. TCGTTTCATA  0.9784 ± 0.0036
182. CACACAAAAT  0.977 ± 0.014
183. TGATTGACGG  0.975 ± 0.015
184. CTTTTTTAGA  0.9746 ± 0.0097
185. CCTAATTTGG  0.974 ± 0.031
186. AGATTTTGTC  0.972 ± 0.011
187. TGGACTTTTT  0.971 ± 0.057
188. AGGGTTATAA  0.969 ± 0.033
189. CGGTAGGGGT  0.969 ± 0.028
190. CGGTGAAGTT  0.966 ± 0.01
191. AATGAAGCTC  0.966 ± 0.051
192. TTATAGTCAT  0.965 ± 0.027
193. TTAACAGTGT  0.964 ± 0.035
194. CGTCGGGGCA  0.964 ± 0.074
195. AGTTTACTGG  0.9626 ± 0.0022
196. TATGACATGG  0.959 ± 0.011
197. ATTTGTAAGT  0.9587 ± 0.006
198. CCAGACAGGG  0.956 ± 0.045
199. TCGTTGGCGG  0.951 ± 0.019
200. GAGGTCGGGC  0.94 ± 0.039
